This is an account of results in publication PMC6168700 (2018).

Assay [1] concerns the target T1, Full-length Has1, His-tagged (Saccharomyces cerevisiae (strain ATCC …, UniProt Q03532)). Kind of assay: Ni-NTA pull-down, Coomassie SDS-PAGE.
Assay [2] has as its target T2, Full-length Rok1, His-tagged (Saccharomyces cerevisiae (strain ATCC …, UniProt P45818)).
T2 chain: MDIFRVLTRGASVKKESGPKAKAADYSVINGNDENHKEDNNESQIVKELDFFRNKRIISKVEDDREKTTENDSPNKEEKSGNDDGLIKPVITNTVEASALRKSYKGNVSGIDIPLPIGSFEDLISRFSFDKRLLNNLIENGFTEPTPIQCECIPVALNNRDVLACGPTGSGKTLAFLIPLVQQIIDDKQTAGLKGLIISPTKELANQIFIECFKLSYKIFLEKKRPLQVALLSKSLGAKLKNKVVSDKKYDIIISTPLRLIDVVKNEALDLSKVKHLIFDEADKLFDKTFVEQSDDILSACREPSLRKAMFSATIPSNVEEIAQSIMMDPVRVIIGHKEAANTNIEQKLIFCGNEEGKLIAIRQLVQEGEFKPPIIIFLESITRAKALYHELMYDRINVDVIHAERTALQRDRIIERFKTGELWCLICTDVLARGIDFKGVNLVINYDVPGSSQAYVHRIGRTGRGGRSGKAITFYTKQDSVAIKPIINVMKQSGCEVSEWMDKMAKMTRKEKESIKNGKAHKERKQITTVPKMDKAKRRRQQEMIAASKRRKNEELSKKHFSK
Kind of assay: Ni-NTA pull-down, Coomassie SDS-PAGE; 2 mM ATP present.

Assay [3] concerns the target T1, Full-length Has1, His-tagged. Kind of assay: Ni-NTA pull-down and co-expression, SDS-PAGE.

T1 sequence (Q03532 whole entry): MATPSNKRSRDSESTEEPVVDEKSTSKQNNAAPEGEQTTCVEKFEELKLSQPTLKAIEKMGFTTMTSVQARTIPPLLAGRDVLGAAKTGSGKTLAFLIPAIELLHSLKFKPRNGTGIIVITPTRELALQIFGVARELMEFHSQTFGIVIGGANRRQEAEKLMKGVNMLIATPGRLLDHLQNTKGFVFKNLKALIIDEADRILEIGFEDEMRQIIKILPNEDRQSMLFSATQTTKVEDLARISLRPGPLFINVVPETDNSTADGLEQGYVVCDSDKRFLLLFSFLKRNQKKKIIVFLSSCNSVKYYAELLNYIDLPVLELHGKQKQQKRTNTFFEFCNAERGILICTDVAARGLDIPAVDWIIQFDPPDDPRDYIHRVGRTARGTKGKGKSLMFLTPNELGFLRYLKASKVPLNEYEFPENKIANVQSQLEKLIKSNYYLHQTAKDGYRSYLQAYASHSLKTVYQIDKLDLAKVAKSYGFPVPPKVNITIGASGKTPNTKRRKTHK

B1: Rrp5 (1083–1343), the last 3 S1 domains only (protein)
chain: STIKVGDELPGRVLKIAEKYVLLDLGNKVTGISFITDALNDFSLTLKEAFEDKINNVIPTTVLSVDEQNKKIELSLRPATAKTRSIKSHEDLKQGEIVDGIVKNVNDKGIFVYLSRKVEAFVPVSKLSDSYLKEWKKFYKPMQYVLGKVVTCDEDSRISLTLRESEINGDLKVLKTYSDIKAGDVFEGTIKSVTDFGVFVKLDNTVNVTGLAHITEIADKKPEDLSALFGVGDRVKAIVLKTNPEKKQISLSLKASHFSKE
As for B1, the binding result in assay [1] and in assay [2] was “no binding” throughout.

B2: Rrp5 (1400–1729), the TPR region alone (protein)
chain: GLSLSAGFDWTASILDQAQEEEESDQDQEDFTENKKHKHKRRKENVVQDKTIDINTRAPESVADFERLLIGNPNSSVVWMNYMAFQLQLSEIEKARELAERALKTINFREEAEKLNIWIAMLNLENTFGTEETLEEVFSRACQYMDSYTIHTKLLGIYEISEKFDKAAELFKATAKKFGGEKVSIWVSWGDFLISHNEEQEARTILGNALKALPKRNHIEVVRKFAQLEFAKGDPERGRSLFEGLVADAPKRIDLWNVYVDQEVKAKDKKKVEDLFERIITKKITRKQAKFFFNKWLQFEESEGDEKTIEYVKAKATEYVASHESQKADE
Take B2: the binding result in assay [3] was “no binding”.
